Data taken from patent US20140377324A1, “Pharmaceutical Composition Comprising miRNA-100 And Its Use In The Modulation of Blood Vessel Growth and Endothelial Inflammation” (Universitatsklinikum Freiburg, priority 2009, published 2014).
Entries after “also recorded” stand apart in the source; their conditions may differ. {Chol} = cholesterol

Columns and labels:
[1] = test system: endothelial cells; assay: BrdU-Incorporation (proliferation), endothelial cells; assay type: cell-based, human; conditions: FIG. 3
From the text: (§1) To assess whether the observed differences were secondary to effects on cellular viability, endothelial cell apoptosis and proliferation following miR-100 modulation was checked. […] DNA-synthesis rate was further analyzed by measuring BrdU-Incorporation, which correlates well with cellular proliferation.

[2] = test system: miR-100; assay: miR-100 level by quantitative stem-loop RT-PCR after pre-miR/anti-miR transfection; assay type: cell-based, human; conditions: 24 h following transfection; vs irrelevant-sequence controls; FIG. 2
From the text: To verify the expression of miR-100 in pure cell populations of the vascular wall, stem-loop RT-PCR was used for total RNA-isolates from cultured human endothelial cells (HUVECs) and human aortic vascular smooth muscle cells.
MicoRNA expression was validated by quantitative stem-loop PCR technology (TaqMan MicroRNA Assays, Applied Biosystems, Foster City, Calif.). The use of target-specific reverse transcription primers and TaqMan hybridization probes allows the specific detection of mature microRNAs. MicroRNA expression was normalized to the expression of the small RNAs rnu19 and rnu48.
miR-100 was strongly expressed in both cell types. To investigate a potential role of miR-100 for angiogenesis, miR-100 was overexpressed and silenced in these cell types by transfecting specific miR-100 precursors (pre-miRs) or antisense-molecules (anti-miRs), respectively. […] Pre- and anti-miRs with an irrelevant nucleotide sequence served as negative controls. There was no significant difference in cellular viability following transfection with the different compounds.
For transfection with pre-miR microRNA precursor molecules or anti-miRmiRNA inhibitors (all Ambion), cells were cultured to 70% confluence and transfected with 8nM pre-miR-100 or anti-miR-100 oligonucleotides using Lipofectamin RNAiMax (invitrogen) according to the manufacturers instructions. […]

[3] = test system: endothelial cells; assay: flow cytometric quantification of Annexin V-staining (apoptosis); assay type: cell-based, human; conditions: compared to irrelevant control sequence, FIG. 3
From the text: as §1

[4] = test system: endothelial cells; assay: three-dimensional spheroid culture assay, endothelial sprouting; assay type: cell-based, human
[5] = test system: HUVECs / human PBMCs; assay: Leukocyte-HUVEC interaction under flow conditions (flow chamber); assay type: cell-based; conditions: TNF-alpha 30 ng/ml for 24 h, flow 1 dyn/cm^2; FIG. 15
Description: HUVECs were grown to confluence, transfected with either anti-miR-100 or pre-Mir-100 oligonucelotides or scrambled controls and stimulated with TNF-alpha 30 ng/ml for 24 h. Human PBMCs (HPBMCs) were obtained from buffy coats of healthy donors by Ficoll-Hypaque density gradient centrifugation. The flow chamber was assembled and placed onto an inverted microscope stage, and freshly isolated HPBMCs (1×10^6/ml) were perfused across the endothelial monolayers. In all experiments, leukocyte interactions were determined over 105 min at 1 dyn/cm^2. Cells interacting on the surface of the endothelium were visualized and recorded using phase-contrast microscopy.
To test if this change in expression results in a functional difference in leukocyte rolling and adhesion to the endothelial surface, the attachment of isolated peripheral blood mononuclear cells (PBMC) to transfected endothelial cells was investigated under physiologic flow conditions in a flow chamber apparatus.
A physiological venous blood flow (1 dynes/cm^2) was induced by a flow chamber apparatus and the number of rolling or adherent peripheral blood mononuclear cells (PBMCs) was counted.

[6] = test system: endothelial cells; assay: planar matrigel assay, endothelial network formation; assay type: cell-based, human
[7] = test system: mTOR; assay: mTOR expression in endothelial cells after miR-100 modulation; assay type: cell-based, human; conditions: FIG. 5
Description: The binding site of miR-100 in the 3′-UTR of mTOR is shown in (FIG. 6.) In FIG. 6 the sequence designated hsa-miR-100 corresponds to SEQ ID NO:1 and the sequence having the designation mTOR 3′UTR corresponds to SEQ ID NO:7.
(§2) For transfection with pre-miR microRNA precursor molecules or anti-miRmiRNA inhibitors (all Ambion), cells were cultured to 70% confluence and transfected with 8nM pre-miR-100 or anti-miR-100 oligonucleotides using Lipofectamin RNAiMax (invitrogen) according to the manufacturers instructions. For transfection of HEK293 cells with mTOR plasmids, 2 μg DNA per 3×10E5 cells was transfected with Fugene 6 transfection reagent (Roche). For double transfection of plasmids with miRNA-precursors and inhibitors, pre- and anti-miRs were added to the plasmid/Fugene transfection mix in the same final concentrations as stated above. mTOR (Acc. NM004958) full length (SKU SC124066) and ORF-constructs (SKU RC220457) were obtained from the Origene collection (Origene, Rockville, Md.).

[8] = test system: murine hindlimb ischemia model; assay: murine hindlimb ischemia model, perfusion restoration and capillary density; assay type: in vivo, C57/BI6J mice
Description: (§3) The murine hindlimb ischemia model conforms to the Guide for the Care and Use of Laboratory Animals published by the U.S. National Institutes of Health and was performed after securing appropriate institutional approval. Unilateral femoral artery occlusion was performed in C57/BI6J mice (Charles River Lab., Sulzfeld, Germany) by double ligation of the superficial femoral artery proximal to the deep femoral artery and the distal femoral artery just above the knee joint. A sham operation without arterial occlusion was performed on the contralateral leg. For molecular biology, histology and in situ hybridization, tissue was carefully dissected and snap-frozen in liquid nitrogen until further analysis. For dissection of isolated collateral arteries, the hindlimb vasculature was […] with liquid latex, to allow the identification and isolation of individual arterial vessels.
(§4) To assess whether inhibition of miR-100 can be be used to stimulate revascularization in vivo, mice were treated with a specific antagomir against miR-100 after induction of unilateral hindlimb ischemia.
In addition, two separate groups of mice were treated with daily injections of the mTOR-inhibitor rapamycin or solvent to investigate the timecourse of hindlimb perfusion restoration under conditions of endogenous miR-100 downregulation, but impaired signalling of its target gene mTOR.

[9] = tissue distribution of fluorescence-labeled antagomir; assay type: in vivo; conditions: mice
[10] = test system: miR-100; assay: miR-100 expression in mouse tissues after antagomir treatment; assay type: in vivo; conditions: mice, three doses of antagomir; FIG. 8
Description: as §3, §4

[11] = test system: vascular smooth muscle cells; assay: BrdU-Incorporation (proliferation), smooth muscle cells; assay type: cell-based, human; conditions: FIG. 4
[12] = test system: E-Selectin; assay: E-Selectin protein expression in endothelial cells (Western blot); assay type: cell-based, human
Description: (§5) MiRNA-100 was overexpressed in human endothelial cells followed by protein isolation. Using Western blots, the protein expression of VCAM-1, ICAM-1 and E-Selectin was determined. FIGS. 14A and B show the ratio between volume intensity of the protein-samples and the loading control (β-tubulin) for [A] the baseline expression and [B] the expression after 24 h TNF-α stimulation.

[13] = test system: cultured cancer cells (oral squamous cell carcinoma); conditions: Henson et al. 2009; cited from earlier work
[14] = test system: mTOR (FRAP1-gene); assay: microarray based gene expression analysis of endothelial cells following miR-100 overexpression (mTOR); assay type: cell-based, human
From the text: Using a combination of bioinformatic prediction algorithms and microarray based gene expression analysis of endothelial cells following miR-100 overexpression, it was searched for potential target genes of miR-100 that could be responsible for the observed effects.

[15] = test system: VCAM-1; assay: Agilent microarray after miR-100 overexpression in endothelial cells, VCAM-1; assay type: cell-based, human; conditions: 48 hours after transfection vs control oligonucleotide, FIG. 12
Description: (§6) After discovering the high baseline expression of miR-100 in endothelial cells and its downregulation in response to vascular injury and ischemia, the function of this microRNA in endothelial cells (EC) was investigated. Therefore, miR-100 was overexpressed in EC by transfecting a synthetic miR-100 precursor molecule (pre-mir) and analysed global mRNA gene expression changes compared to transfection with a control oligonucleotide at 48 hours after transfection on a human Agilent 4×44 k microarray platform.
(§7) Microarray results were analysed both on individual gene level as well as by biological pathway analysis using the “Panther Pathways Analysis” Tool that tests changes in gene expression for enrichment of specific biological pathways or cellular functions.
(§8) Endothelial cells were transfected with miR-100 precursor oligonucleotides. Total RNA was isolated after 48 h for microarray analysis of global gene expression.

[16] = test system: ICAM-1; assay: ICAM-1 mRNA expression in endothelial cells (Taqman PCR); assay type: cell-based, human; conditions: vs scrambled premiR control; FIG. 13
Description: (§9) Human endothelial cells were transfected with premiR-100 and scrambled premiR control oligonucleotides. After RNA isolation, the relative expression rate of the mRNA of different adhesion molecules was measured using the Stem loop Taqman PCR (P value≦0.005).

[17] = test system: E-Selectin; assay: E-Selectin mRNA expression in endothelial cells (Taqman PCR); assay type: cell-based, human; conditions: vs scrambled premiR control; FIG. 13
Description: as §9

[18] = test system: HEK293 cells; assay: HEK cell proliferation, rescue-experiment with mTOR plasmids; assay type: cell-based, human; conditions: 8nM oligonucleotide; FIG. 7
Description: To investigate if the repression of mTOR was responsible for the observed attenuation of cellular proliferation by miR-100, a rescue-experiment was performed by transfecting mTOR-coding plasmids in combination with pre-miR-100.
as §2
Due to the large plasmid size of mTOR, it was not possible to achieve a sufficient transfection rate in endothelial cells without procedure-related toxic effects and therefore the easily transfected HEK-cells were chosen as a culture model, where the miR-100 effects on proliferation seen in endothelial cells could be reproduced (FIG. 7).

[19] = test system: ICAM-1; assay: ICAM-1 protein expression in endothelial cells (Western blot); assay type: cell-based, human
Description: as §5

[20] = test system: VCAM-1; assay: VCAM-1 protein expression in endothelial cells (Western blot); assay type: cell-based, human
Description: as §5

[21] = test system: VCAM-1; assay: VCAM-1 mRNA expression in endothelial cells (Taqman PCR); assay type: cell-based, human; conditions: vs scrambled premiR control; FIG. 13
Description: as §9

[22] = test system: E-Selectin (SELE); assay: Agilent microarray after miR-100 overexpression in endothelial cells, E-Selectin; assay type: cell-based, human; conditions: 48 hours after transfection vs control oligonucleotide, FIG. 12
Description: as §6, §7, §8

[23] = after 24 h TNF-α stimulation, FIG. 14B

## anti-miR-100: antisense-molecule (anti-miR miRNA inhibitor, Ambion) silencing miR-100 in cultured cells; SEQ ID No:3 designated Anti miR (antisense CACAAGUUCGGAUCUACGGGUU; listed as RNA, chemistry not given here)
[1]
  endothelial cell proliferation (DNA-synthesis rate): consistent stimulatory effect
[2]
  detectable miR-100 (relative miR-100 expression): significantly decreased miR-100 levels
[3]
  endothelial cell apoptosis: no significant effect
[4]
  endothelial sprouting (total sprout length): longer total sprout length
[5]
  leukocyte (PBMC) adhesion to transfected endothelial cells: stimulatory effect
  leukocyte (PBMC) rolling on transfected endothelial cells: stimulatory effect
[6]
  endothelial network formation: increased endothelial network formation
[7]
  mTOR-expression on both mRNA as well as protein level: significant upregulation

## Antag-100: antagomir 5′-cacaaguucggaucuacggguu-3′ (SEQ ID No. 3), 2-O-methyl-RNA, phosphothioat modifications, cholesterol conjugation at 3′-end (antisense CACAAGUUCGGAUCUACGGGUU; all 2'-O-methyl, 3' {Chol}, backbone not given here; phosphorothioate modifications)
[8]; day 7 following induction of ischemia, compared to two control-antagomirs
  flow ratio: higher flow ratio
[8]; distal hindlimb / ischemic tissue
  capillary density: increase in capillary density
[8]; mice, after femoral artery occlusion, day 7, vs control-antagomirs or solvent, FIG. 9
  perfusion restoration (blood flow restoration): significant stimulation of perfusion restoration
[9]
  tissue localisation of antagomir: found in the endothelial layer of blood vessels; also recorded: most prominent accumulation was found in liver and lung sections
[10]
  miR-100 expression in a wide selection of tissues: strong and sustained suppression of miR-100 expression

B1: pre-miR-100: synthetic miR-100 precursor molecule, SEQ ID No. 8, used to overexpress miR-100; processed to mature miRNA-100 (SEQ ID No: 9) (nucleic acid)
chain: CCUGUUGCCACAAACCCGUAGAUCCGAACUUGUGGUAUUAGUCCGCACAAGCUUGUAUCUAUAGGUAUGUGUCUGUUAGG
modifications: listed as RNA, chemistry not given here
[11]
  inhibitory effect on proliferation, smooth muscle cells compared with endothelial cells: more pronounced in endothelial cells than in smooth muscle cells
[1]
  endothelial cell proliferation (DNA-synthesis rate): significant attenuation of endothelial cell proliferation
[2]
  detectable miR-100 (relative miR-100 expression): strong increase in detectable miR-100
[12]; [23]
  E-Selectin protein, upregulation after TNF-α stimulation: blunts the upregulation in response to inflammatory stimuli
[12]; ratio to β-tubulin
  E-Selectin protein, baseline expression: decreases baseline expression
[13]
  cell proliferation: significantly reduced cell proliferation
[3]
  endothelial cell apoptosis: slight increase in endothelial cell apoptosis
[14]
  mTOR (FRAP1) gene expression: downregulated
[4]
  endothelial sprouting (total sprout length): significant inhibitory effect
[15]
  VCAM-1 gene expression: strong downregulation
[16]
  ICAM-1 mRNA relative expression: decrease
[17]
  E-Selectin mRNA relative expression: decrease
[5]
  leukocyte (PBMC) adhesion to transfected endothelial cells: significantly attenuates leukocyte adhesion
[18]
  cell proliferation of HEK cells: anti-proliferative effect
[6]
  endothelial network formation: significant inhibitory effect
[19]; [23]
  ICAM-1 protein, upregulation after TNF-α stimulation: blunts the upregulation in response to inflammatory stimuli
[19]; ratio to β-tubulin, FIG. 14A
  ICAM-1 protein, baseline expression: decreases baseline expression
[20]; [23]
  VCAM-1 protein, upregulation after TNF-α stimulation: blunts the upregulation in response to inflammatory stimuli
[20]; ratio to β-tubulin, FIG. 14A
  VCAM-1 protein, baseline expression: decreases baseline expression
[7]
  mTOR-expression on both mRNA as well as protein level: significantly repressed
[21]
  VCAM-1 mRNA relative expression: decrease
[22]
  E-Selectin (SELE) gene expression: strong downregulation
